Experimental data taken from the RNAGym collection of RNA variant scans (doi:10.1021/acssynbio.7b00057).

B1: Pistol ribozyme (parent)
chain: GGGUCGUUGUUCCAUAAUCGCGUGGAUAUGGCACGCAAGUUUCUACCGGGCACCGUAAAUGUCCGACUGGAGCCGUUCGGGCGGCUAUAAACAGACCUCAGGCCCGAAGCGUGGCGGCACCUGCCGCCGGUGGUAAAAAAGAUCGGAAGAGCACACGUCU

Variants of: B1
Test: aptazyme ON/OFF ratio, guanine; higher = stronger switching; co-transcriptional cleavage with and without guanine

Variant	aptazyme ON/OFF ratio
U7C G9U U10G C12G C13U	1.11
U7C G9U U10G C12G C13G	1.12
U7C G9U U10G C12G C13A	1.2
U7C U8A G9A C12A C13U	1.15
U7C U8A G9A C12A C13A	1.21
U7C U8A G9A C12A C13G	1.2
U7C U8A G9A C13A	1.15
U7C U8A G9A C13G	1.06
U7C U8A G9A C13U	1.18
U7C G9U U11C C12G C13U	1.07
U7C G9U U11C C12G C13G	1.06
U7C G9U U11C C12G C13A	1.05
U7C U8A G9A C12G C13U	1.17
U7C U8A G9A C12G C13G	1.22
U7C U8A G9A C12G C13A	1.17
U7C G9U U10G U11G C12G	1.14
U7C G9U U10G U11G C12A	1.22
U7C G9U U10G U11G C12U	1.16
U7C G9U U11G C13A	1.21
U7C G9U U11G C13U	1.15
U7C G9U U11G C13G	1.03

Variant	aptazyme ON/OFF ratio
U7C G9U U10C U11G C13U	1.23
U7C G9U U10C U11G C13G	1.04
U7C G9U U10C U11G C13A	1.24
U7C G9U U10G U11A C12G C13G	1.24
U7C G9U U10G U11A C12G C13A	1.11
U7C G9U U10G U11A C12G C13U	1.12
U7C U8A G9A U10A U11C C13U	1.05
U7C U8A G9A U10A U11C C13A	1.03
U7C U8A G9A U10A U11C C13G	1.03
U7C U8A G9A U10A U11G C12U	1.14
U7C U8A G9A U10A U11G C12G	1.12
U7C U8A G9A U10A U11G C12A	1.05
U7C U8A G9A U10C U11G C13U	1.1
U7C U8A G9A U10C U11G C13G	1.13
U7C U8A G9A U10C U11G C13A	1.15
U7C G9U U10C U11C C12U C13G	1.02
U7C G9U U10C U11C C12U C13U	1.05
U7C G9U U10C U11C C12U C13A	1.02
U7C G9U U10G C12A C13U	1.24
U7C G9U U10G C12A C13A	1.09
U7C G9U U10G C12A C13G	1.13

Variant	aptazyme ON/OFF ratio
U7C U8A G9A U10C U11A C12U C13A	1.17
U7C U8A G9A U10C U11A C12U C13G	1.15
U7C U8A G9A U10C U11A C12U C13U	1.11
U7C U8A C12G C13G	1.23
U7C U8A C12G C13A	1.14
U7C U8A C12G C13U	1.3
U7C U8A G9A U10G C12G	1.25
U7C U8A G9A U10G C12A	1.15
U7C U8A G9A U10G C12U	1.29
U7C U8A G9A U10A U11G C12U C13A	1.21
U7C U8A G9A U10A U11G C12U C13U	1.22
U7C U8A G9A U10A U11G C12U C13G	1.17
U7C U8A G9A U10G U11A C12A C13G	1.17
U7C U8A G9A U10G U11A C12A C13U	1.17
U7C U8A G9A U10G U11A C12A C13A	1.18
U7C G9U U10G U11G C12G C13A	1.13
U7C G9U U10G U11G C12G C13G	1.12
U7C G9U U10G U11G C12G C13U	1.08
U7C G9U U10G U11A C13U	1.06
U7C G9U U10G U11A C13G	1.06
U7C G9U U10G U11A C13A	1.09

Variant	aptazyme ON/OFF ratio
U7C U8A G9A U10C U11C C12G	1.09
U7C U8A G9A U10C U11C C12U	1.04
U7C U8A G9A U10C U11C C12A	1.09
U7C G9U U11A C12G C13U	1.14
U7C G9U U11A C12G C13A	1.2
U7C G9U U11A C12G C13G	1.24
U7C G9U U10C U11C C12G	1.02
U7C G9U U10C U11C C12U	1.02
U7C U8A G9A U10A U11C C12U C13G	1.06
U7C U8A G9A U10A U11C C12U C13A	1.09
U7C U8A G9A U10A U11C C12U C13U	1.1
U7C U8A G9A U10A U11G C13A	1.16
U7C U8A G9A U10A U11G C13U	1.25
U7C U8A G9A U10A U11G C13G	1.02
U7C U8A G9A U10A U11A C12U	1.19
U7C U8A G9A U10A U11A C12A	1.2
U7C U8A G9A U10A U11A C12G	1.23
U7C G9U U11C C12G	1.08
U7C G9U U11C C12A	1.26
U7C G9U U11C C12U	1.16
